PMC10397247
One block for each binder: values may come before it.

Key:
O16-bS = biological target: T1, O16-bS; experiment: two-hybrid library CCNG1;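 note: natural log of median RNA to DNA barcode read ratio; higher means stronger binding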
T1 chain: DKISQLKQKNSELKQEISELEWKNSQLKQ

O15-bS = biological target: T2, O15-bS; experiment: two-hybrid library CCNG1;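 note: natural log of median RNA to DNA barcode read ratio; higher means stronger binding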
T2 chain: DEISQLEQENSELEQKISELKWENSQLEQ

O9-bS = biological target: T3, O9-bS; experiment: two-hybrid library CCNG1;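 note: natural log of median RNA to DNA barcode read ratio; higher means stronger binding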
T3 chain: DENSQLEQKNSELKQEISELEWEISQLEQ

O6-bS = biological target: T4, O6-bS; experiment: two-hybrid library CCNG1;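 note: natural log of median RNA to DNA barcode read ratio; higher means stronger binding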
T4 chain: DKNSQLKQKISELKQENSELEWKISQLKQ

O13-bS = biological target: T5, O13-bS; experiment: two-hybrid library CCNG1;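 note: natural log of median RNA to DNA barcode read ratio; higher means stronger binding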
T5 chain: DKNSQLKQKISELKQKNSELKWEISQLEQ

O7-bS = biological target: T6, O7-bS; experiment: two-hybrid library CCNG1;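 note: natural log of median RNA to DNA barcode read ratio; higher means stronger binding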
T6 chain: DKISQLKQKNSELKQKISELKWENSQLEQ

O5-bS = biological target: T7, O5-bS; experiment: two-hybrid library CCNG1
T7 chain: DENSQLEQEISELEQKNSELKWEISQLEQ

O14-bS = biological target: T8, O14-bS; experiment: two-hybrid library CCNG1
T8 chain: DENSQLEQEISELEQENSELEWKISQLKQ

O3-bS = biological target: T9, O3-bS; experiment: two-hybrid library CCNG1
T9 chain: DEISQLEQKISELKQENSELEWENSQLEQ

O4-bS = biological target: T10, O4-bS; experiment: two-hybrid library CCNG1
T10 chain: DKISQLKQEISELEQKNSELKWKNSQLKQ

O12-bS = biological target: T11, O12-bS; experiment: two-hybrid library CCNG1
T11 chain: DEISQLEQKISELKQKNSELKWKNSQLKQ

O2-bS = biological target: T12, O2-bS; experiment: two-hybrid library CCNG1
T12 chain: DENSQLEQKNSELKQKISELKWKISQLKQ

O8-bS = biological target: T13, O8-bS; experiment: two-hybrid library CCNG1
T13 chain: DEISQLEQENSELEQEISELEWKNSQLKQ

GCN2_T = experiment: two-hybrid library CCmax; conditions: mean of both orientations
4H4038-AA = biological target: T14, 4H4038-AA; experiment: two-hybrid library CCmax; conditions: mean of both orientations
T14 chain: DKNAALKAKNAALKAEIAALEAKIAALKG

O11-AA = biological target: T15, O11-AA; experiment: two-hybrid library CCmax; conditions: mean of both orientations
T15 chain: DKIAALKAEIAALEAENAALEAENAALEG

4H43-AA = biological target: T16, 4H43-AA; experiment: two-hybrid library CCmax; conditions: mean of both orientations
T16 chain: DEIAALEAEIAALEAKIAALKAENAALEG

4H384-AA = biological target: T17, 4H384-AA; experiment: two-hybrid library CCmax
T17 chain: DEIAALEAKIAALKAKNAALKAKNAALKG

O3-AA = biological target: T18, O3-AA; experiment: two-hybrid library CCmax; conditions: mean of both orientations
T18 chain: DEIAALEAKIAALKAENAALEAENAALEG

4H_BCR = biological target: T19, 4H_BCR; experiment: two-hybrid library CCmax; conditions: mean of both orientations
T19 chain: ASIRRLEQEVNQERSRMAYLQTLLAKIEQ

4H_GCN4 = experiment: two-hybrid library CCmax
4H_GCN4, sequence (chain, as listed by the source): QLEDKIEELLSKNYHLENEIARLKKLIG

4H3905-AA = biological target: T20, 4H3905-AA; experiment: two-hybrid library CCmax; conditions: mean of both orientations
T20 chain: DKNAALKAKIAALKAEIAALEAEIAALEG

O14-AA = biological target: T21, O14-AA; experiment: two-hybrid library CCmax; conditions: mean of both orientations
T21 chain: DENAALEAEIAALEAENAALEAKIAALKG

4H697-AA = biological target: T22, 4H697-AA; experiment: two-hybrid library CCmax; conditions: mean of both orientations
T22 chain: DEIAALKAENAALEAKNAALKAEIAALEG

O7-AA = biological target: T23, O7-AA; experiment: two-hybrid library CCmax; conditions: mean of both orientations
T23 chain: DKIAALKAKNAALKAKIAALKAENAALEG

O2-AA = biological target: T24, O2-AA; experiment: two-hybrid library CCmax; conditions: mean of both orientations
T24 chain: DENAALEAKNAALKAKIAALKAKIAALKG

P10-AA = biological target: T25, P10-AA; experiment: two-hybrid library CCmax; conditions: mean of both orientations
T25 chain: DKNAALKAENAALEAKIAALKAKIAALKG

O6-AA = biological target: T26, O6-AA; experiment: two-hybrid library CCmax; conditions: mean of both orientations
T26 chain: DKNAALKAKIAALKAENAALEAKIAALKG

O4-AA = biological target: T27, O4-AA; experiment: two-hybrid library CCmax; conditions: mean of both orientations
T27 chain: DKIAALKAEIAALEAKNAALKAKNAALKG

O5-AA = biological target: T28, O5-AA; experiment: two-hybrid library CCmax; conditions: mean of both orientations
T28 chain: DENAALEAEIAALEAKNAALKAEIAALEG

O8-AA = biological target: T29, O8-AA; experiment: two-hybrid library CCmax; conditions: mean of both orientations
T29 chain: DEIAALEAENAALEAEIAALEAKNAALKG

O13-AA = biological target: T30, O13-AA; experiment: two-hybrid library CCmax; conditions: mean of both orientations
T30 chain: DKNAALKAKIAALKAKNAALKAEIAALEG

O1-AA = biological target: T31, O1-AA; experiment: two-hybrid library CCmax; conditions: mean of both orientations
T31 chain: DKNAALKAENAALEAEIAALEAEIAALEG

4H_APH = biological target: T32, 4H_APH; experiment: two-hybrid library CCmax; conditions: mean of both orientations
T32 chain: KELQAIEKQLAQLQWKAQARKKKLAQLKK

P9-AA = biological target: T33, P9-AA; experiment: two-hybrid library CCmax; conditions: mean of both orientations
T33 chain: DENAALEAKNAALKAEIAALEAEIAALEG

4H510-AA = biological target: T34, 4H510-AA; experiment: two-hybrid library CCmax; conditions: mean of both orientations
T34 chain: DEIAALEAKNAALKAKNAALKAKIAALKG

4H451-AA = biological target: T35, 4H451-AA; experiment: two-hybrid library CCmax; conditions: mean of both orientations
T35 chain: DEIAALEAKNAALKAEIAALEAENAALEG

4H982-AA = biological target: T36, 4H982-AA; experiment: two-hybrid library CCmax; conditions: mean of both orientations
T36 chain: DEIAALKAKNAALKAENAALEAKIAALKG

4H3865-AA = biological target: T37, 4H3865-AA; experiment: two-hybrid library CCmax; conditions: mean of both orientations
T37 chain: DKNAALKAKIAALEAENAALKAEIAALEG

4H56-bN = biological target: T38, 4H56-bN; experiment: two-hybrid library CCNG1
T38 chain: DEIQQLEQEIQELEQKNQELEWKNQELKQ

4H3364-bN = biological target: T39, 4H3364-bN; experiment: two-hybrid library CCNG1
T39 chain: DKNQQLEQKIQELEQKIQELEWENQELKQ

4H730-bN = biological target: T40, 4H730-bN; experiment: two-hybrid library CCNG1
T40 chain: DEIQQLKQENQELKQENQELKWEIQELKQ

4H2585-bN = biological target: T41, 4H2585-bN; experiment: two-hybrid library CCNG1
T41 chain: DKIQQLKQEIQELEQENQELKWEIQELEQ

4H2931-bN = biological target: T42, 4H2931-bN; experiment: two-hybrid library CCNG1
T42 chain: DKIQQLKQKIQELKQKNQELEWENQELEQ

4H2233-bN = biological target: T43, 4H2233-bN; experiment: two-hybrid library CCNG1
T43 chain: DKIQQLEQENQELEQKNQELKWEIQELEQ

4H2518-bN = biological target: T44, 4H2518-bN; experiment: two-hybrid library CCNG1
T44 chain: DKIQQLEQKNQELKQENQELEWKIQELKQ

4H3381-bN = biological target: T45, 4H3381-bN; experiment: two-hybrid library CCNG1
T45 chain: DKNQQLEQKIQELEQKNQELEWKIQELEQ

4H796-bN = biological target: T46, 4H796-bN; experiment: two-hybrid library CCNG1
T46 chain: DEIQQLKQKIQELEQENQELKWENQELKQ

4H949-bN = biological target: T47, 4H949-bN; experiment: two-hybrid library CCNG1
T47 chain: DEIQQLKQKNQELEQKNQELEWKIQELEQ

4H2444-bN = biological target: T48, 4H2444-bN; experiment: two-hybrid library CCNG1
T48 chain: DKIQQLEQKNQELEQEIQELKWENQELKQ

4H264-bN = biological target: T49, 4H264-bN; experiment: two-hybrid library CCNG1
T49 chain: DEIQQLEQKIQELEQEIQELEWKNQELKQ

4H349-bN = biological target: T50, 4H349-bN; experiment: two-hybrid library CCNG1
T50 chain: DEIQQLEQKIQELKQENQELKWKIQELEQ

4H2859-bN = biological target: T51, 4H2859-bN; experiment: two-hybrid library CCNG1
T51 chain: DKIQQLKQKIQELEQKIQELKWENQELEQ

4H932-bN = biological target: T52, 4H932-bN; experiment: two-hybrid library CCNG1
T52 chain: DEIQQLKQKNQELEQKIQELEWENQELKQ

4H3041-bN = biological target: T53, 4H3041-bN; experiment: two-hybrid library CCNG1
T53 chain: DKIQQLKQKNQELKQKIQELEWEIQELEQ

4H2760-bN = biological target: T54, 4H2760-bN; experiment: two-hybrid library CCNG1
T54 chain: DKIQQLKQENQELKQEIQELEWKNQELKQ

4H3297-bN = biological target: T55, 4H3297-bN; experiment: two-hybrid library CCNG1
T55 chain: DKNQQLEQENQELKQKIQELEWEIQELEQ

4H2253-bN = biological target: T56, 4H2253-bN; experiment: two-hybrid library CCNG1
T56 chain: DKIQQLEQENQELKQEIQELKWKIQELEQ

4H235-bN = biological target: T57, 4H235-bN; experiment: two-hybrid library CCNG1
T57 chain: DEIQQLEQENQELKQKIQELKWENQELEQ

interaction score (O16-bS): -1.04
interaction score (O15-bS): -0.445
interaction score (O9-bS): -0.617
interaction score (O6-bS): -0.702
interaction score (O13-bS): -2.21
interaction score (O7-bS): -0.726
interaction score (O5-bS): -1.66
interaction score (O14-bS): -2.32
interaction score (O3-bS): 0.395
interaction score (O4-bS): -0.445
interaction score (O12-bS): -0.402
interaction score (O2-bS): -0.108
interaction score (O8-bS): -0.862
Binder: DEISQLEQKISELKQKNSELKWKNSQLKQ [O12-bS]

interaction score (GCN2_T): -1.61
interaction score (4H4038-AA): -1.15
interaction score (O11-AA): 2.48
interaction score (4H43-AA): 0.71
interaction score (4H384-AA): -1.34
interaction score (O3-AA): 1.52
interaction score (4H_BCR): -2.23
interaction score (4H_GCN4): -2.22
interaction score (4H3905-AA): 0.75
interaction score (O14-AA): 0.835
interaction score (4H697-AA): -1.86
interaction score (O7-AA): -1.59
interaction score (O2-AA): -1.68
interaction score (P10-AA): -1.12
interaction score (O6-AA): -0.52
interaction score (O4-AA): -0.235
interaction score (O5-AA): -0.778
interaction score (O8-AA): 0.295
interaction score (O13-AA): -1.52
interaction score (O1-AA): -1.04
interaction score (4H_APH): -1.66
interaction score (P9-AA): -0.334
interaction score (4H510-AA): -1.55
interaction score (4H451-AA): -0.0732
interaction score (4H982-AA): -1.63
interaction score (4H3865-AA): -0.294
Binder: DEIAALEAKIAALKAKNAALKAKNAALKG [4H384-AA]

interaction score (4H56-bN): -0.577
interaction score (4H3364-bN): -0.324
interaction score (4H730-bN): -0.539
interaction score (4H2585-bN): -2.3
interaction score (4H2931-bN): -0.485
interaction score (4H2233-bN): -1.12
interaction score (4H2518-bN): 1.97
interaction score (4H3381-bN): -0.889
interaction score (4H796-bN): -0.624
interaction score (4H949-bN): -1.36
interaction score (4H2444-bN): -0.713
interaction score (4H264-bN): -0.163
interaction score (4H349-bN): -0.452
interaction score (4H2859-bN): -0.431
interaction score (4H932-bN): -1.19
interaction score (4H3041-bN): -1.98
interaction score (4H2760-bN): -0.863
interaction score (4H3297-bN): -1.34
interaction score (4H2253-bN): -0.322
interaction score (4H235-bN): -0.762
Binder: DKIQQLEQENQELEQKNQELKWEIQELEQ [4H2233-bN]
